In PMC3091952:

Key:
Experiment in all cases: pull-down
[1] = molecular target: PAD4 R609Q, labelled with BFA (human) (UniProt Q9UM07)
[2] = molecular target: PAD4 R639Q, labelled with BFA (human) (UniProt Q9UM07)
[3] = molecular target: PAD4 R123Q, labelled with BFA (human) (UniProt Q9UM07)
[4] = molecular target: PAD4 R484Q, labelled with BFA (human) (UniProt Q9UM07)
[5] = molecular target: PAD4 R419Q, labelled with BFA (human) (UniProt Q9UM07)

fold reduction of affinity against wild type PAD4 [1] [fold]	fold reduction of affinity against wild type PAD4 [2] [fold]	fold reduction of affinity against wild type PAD4 [3] [fold]	fold reduction of affinity against wild type PAD4 [4] [fold]	fold decrease of affinity against wild type PAD4 [3] [fold]	fold decrease of affinity against wild type PAD4 [4] [fold]	fold decrease of affinity against wild type PAD4 [5] [fold]	Substance
3.3	5	2	10				Protein Arginine Methyltransferase 1 (PRMT1) (from UniProt Q99873 1-371) (enzyme)
				3.3	1.4	1.4	Histone Deacetylase 1 (HDAC1) (from UniProt Q13547 1-482) (enzyme)
